Test results reported in patent US20160297884A1 (Pfizer, published 2016).

T1: Human BCMA (human, UniProt Q02223 1-54, limits assumed)
T1 construct: Soluble analyte in SPR; construct not described; also called huBCMA; B-cell maturation antigen
T1 sequence (looked up): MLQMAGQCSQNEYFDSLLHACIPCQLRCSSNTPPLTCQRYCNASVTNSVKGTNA

T2: Human BCMA (human, UniProt Q02223 1-54, limits assumed)
T2 construct: also called huBCMA; B-cell maturation antigen
T2 sequence (looked up): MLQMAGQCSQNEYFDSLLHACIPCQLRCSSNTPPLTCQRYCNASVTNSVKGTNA


Key:
[1] = biological target: T1, Human BCMA; assay: SPR, IgG immobilised, 37 C
Procedure: (§1) All experiments were performed on a Bio-Rad Proteon XPR36 surface Plasmon resonance biosensor (Bio-Rad, Hercules, Calif.). […] The analysis temperature for the immobilization was 25° C. and the running buffer was HBS-T+(10 mM HEPES, 150 mM NaCl, 0.05% Tween-20, pH 7.4). Channels were activated in the analyte (horizontal) direction by injecting a mixture of 1 mM ECD and 0.25 mM NHS for 3 minutes at a flow rate of 30 μL/min. IgGs were immobilized on the activated spots by injecting them in the ligand (vertical) direction at 20 μg/mL in 10 mM Acetate pH 4.5 buffer for 1.5 minutes at […]. The activated surfaces were blocked by injecting 1M ethanolamine, pH 8.5 in the analyte direction for 3 minutes at 30 μL/min.
(§2) The analysis temperature for the BCMA binding analysis was 37° C. or 25° C. in a running buffer of HBS-T+, supplemented with 1 mg/mL BSA. A kinetic titration method was employed for the interaction analysis as described in Abdiche, et al. Human BCMA (huBCMA) or cynomolgus monkey BCMA (cyBCMA) analyte was injected in the analyte direction using a series of injections from low to high concentration. The concentrations used were 0.08 nM, 0.4 nM, 2 nM, 10 nM and 50 nM (a 5-membered series, with a 5-fold dilution factor and top concentration of 50 nM). The association time for a given analyte dilution was two minutes. Immediately after the 50 nM BCMA injection, dissociation was monitored for 2 hours.
(§3) The sensorgrams were double-referenced and fit to a 1:1 Langmuir with mass transport kinetic titration model in BIAevaluation Software version 4.1.1 (GE Lifesciences, Piscataway, N.J.).

[2] = biological target: T3, cynomolgus monkey BCMA (cynomolgus monkey, UniProt A0A2K5UD97 1-53); assay: SPR, IgG immobilised, 37 C
T3 construct: Soluble analyte in SPR; construct not described; also called cyBCMA; Cyno BCMA
T3 sequence (A0A2K5UD97 entry or part of it): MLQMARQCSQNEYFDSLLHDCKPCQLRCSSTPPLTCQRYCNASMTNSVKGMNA
Procedure: as §1, §2, §3

[3] = biological target: T2, Human BCMA; assay: SPR, IgG immobilised, human BCMA analyte
Method in brief: (§4)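 Kinetic titration: huBCMA/cyBCMA 0.08–50 nM (5-fold steps), 2 min association per step, 2 h dissociation after top dose; HBS-T+ + 1 mg/mL BSA, 25 or 37° C; double-referenced, fit 1:1 Langmuir with mass transport.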

[4] = biological target: T4, Cynomolgus monkey BCMA (cynomolgus monkey); assay: SPR, IgG immobilised, cyno BCMA analyte
T4 construct: Soluble analyte in SPR; also called cyBCMA; Cyno BCMA
Method in brief: as §4

Binder | Kd [1] | T ½ [1] | koff [1] | kon [1] | Kd [2] | T ½ [2] | koff [2] | kon [2] | Kd [3] | koff [3] | kon [3] | Kd [4] | koff [4] | kon [4]
L3.PY/H2.DY (antibody, V domains shown, IgG) VH: EVQLLESGGGLVQPGGSLRLSCAASGFTFGSYAMTWVRQAPGKGLEWVSAIDYSGGNTFYADSVKGRFTISRDNSKNTLYLQMNSLRAEDTAVYYCARVSPIASGMDYWGQGTLVTVSS VL: EIVLTQSPGTLSLSPGERATLSCRASQSVSSSYLAWYQQKPGQAPRLLIYGASSRATGIPDRFSGSGSGTDFTLTISRLEPEDFAVYYCQHYPYPPSFTFGQGTKVEIK | 0.53 nM | 8.37 min | 0.00138 s⁻¹ | 2.6e+06 M⁻¹ s⁻¹ | 2.76 nM | 1.87 min | 0.00618 s⁻¹ | 2.24e+06 M⁻¹ s⁻¹ |  |  |  |  |  | 
L3.PY/H2.QR (antibody, V domains shown, IgG) VH: EVQLLESGGGLVQPGGSLRLSCAASGFTFGSYAMTWVRQAPGKGLEWVSAISGSGGNTFYADQRKGRFTISRDNSKNTLYLQMNSLRAEDTAVYYCARVSPIASGMDYWGQGTLVTVSS VL: EIVLTQSPGTLSLSPGERATLSCRASQSVSSSYLAWYQQKPGQAPRLLIYGASSRATGIPDRFSGSGSGTDFTLTISRLEPEDFAVYYCQHYPYPPSFTFGQGTKVEIK | 0.46 nM | 9.75 min | 0.00119 s⁻¹ | 2.56e+06 M⁻¹ s⁻¹ | 3.02 nM | 1.76 min | 0.00658 s⁻¹ | 2.18e+06 M⁻¹ s⁻¹ |  |  |  |  |  | 
L3.PY/L1.AH/H2.DY (antibody, V domains shown, IgG) VH: EVQLLESGGGLVQPGGSLRLSCAASGFTFGSYAMTWVRQAPGKGLEWVSAIDYSGGNTFYADSVKGRFTISRDNSKNTLYLQMNSLRAEDTAVYYCARVSPIASGMDYWGQGTLVTVSS VL: EIVLTQSPGTLSLSPGERATLSCRASQSVSAHYLAWYQQKPGQAPRLLIYGASSRATGIPDRFSGSGSGTDFTLTISRLEPEDFAVYYCQHYPYPPSFTFGQGTKVEIK | 0.5 nM | 7.62 min | 0.00152 s⁻¹ | 3.05e+06 M⁻¹ s⁻¹ | 1.95 nM | 2.56 min | 0.00451 s⁻¹ | 2.32e+06 M⁻¹ s⁻¹ |  |  |  |  |  | 
L3.PY/H2.QL (antibody, V domains shown, IgG) VH: EVQLLESGGGLVQPGGSLRLSCAASGFTFGSYAMTWVRQAPGKGLEWVSAISGSGGNTFYADQLKGRFTISRDNSKNTLYLQMNSLRAEDTAVYYCARVSPIASGMDYWGQGTLVTVSS VL: EIVLTQSPGTLSLSPGERATLSCRASQSVSSSYLAWYQQKPGQAPRLLIYGASSRATGIPDRFSGSGSGTDFTLTISRLEPEDFAVYYCQHYPYPPSFTFGQGTKVEIK | 0.82 nM | 5.31 min | 0.00218 s⁻¹ | 2.64e+06 M⁻¹ s⁻¹ | 6.16 nM | 0.91 min | 0.0126 s⁻¹ | 2.05e+06 M⁻¹ s⁻¹ |  |  |  |  |  | 
L3.PY/H2.HA (antibody, V domains shown, IgG) VH: EVQLLESGGGLVQPGGSLRLSCAASGFTFGSYAMTWVRQAPGKGLEWVSAISHAGGNTFYADSVKGRFTISRDNSKNTLYLQMNSLRAEDTAVYYCARVSPIASGMDYWGQGTLVTVSS VL: EIVLTQSPGTLSLSPGERATLSCRASQSVSSSYLAWYQQKPGQAPRLLIYGASSRATGIPDRFSGSGSGTDFTLTISRLEPEDFAVYYCQHYPYPPSFTFGQGTKVEIK | 0.6 nM | 7.89 min | 0.00147 s⁻¹ | 2.43e+06 M⁻¹ s⁻¹ | 3.79 nM | 1.53 min | 0.00755 s⁻¹ | 1.99e+06 M⁻¹ s⁻¹ |  |  |  |  |  | 
L3.PY/H3.TAQ (antibody, V domains shown, IgG) VH: EVQLLESGGGLVQPGGSLRLSCAASGFTFGSYAMTWVRQAPGKGLEWVSAISGSGGNTFYADSVKGRFTISRDNSKNTLYLQMNSLRAEDTAVYYCTRVSPIAAQMDYWGQGTLVTVSS VL: EIVLTQSPGTLSLSPGERATLSCRASQSVSSSYLAWYQQKPGQAPRLLIYGASSRATGIPDRFSGSGSGTDFTLTISRLEPEDFAVYYCQHYPYPPSFTFGQGTKVEIK | 0.37 nM | 10.1 min | 0.00114 s⁻¹ | 3.08e+06 M⁻¹ s⁻¹ | 1.7 nM | 2.64 min | 0.00437 s⁻¹ | 2.57e+06 M⁻¹ s⁻¹ |  |  |  |  |  | 
L3.PY/H2.LT (antibody, V domains shown, IgG) VH: EVQLLESGGGLVQPGGSLRLSCAASGFTFGSYAMTWVRQAPGKGLEWVSAISLTGGNTFYADSVKGRFTISRDNSKNTLYLQMNSLRAEDTAVYYCARVSPIASGMDYWGQGTLVTVSS VL: EIVLTQSPGTLSLSPGERATLSCRASQSVSSSYLAWYQQKPGQAPRLLIYGASSRATGIPDRFSGSGSGTDFTLTISRLEPEDFAVYYCQHYPYPPSFTFGQGTKVEIK | 0.54 nM | 8.95 min | 0.00129 s⁻¹ | 2.4e+06 M⁻¹ s⁻¹ | 3.63 nM | 1.53 min | 0.00757 s⁻¹ | 2.09e+06 M⁻¹ s⁻¹ |  |  |  |  |  | 
L3.PY/H2.YQ (antibody, V domains shown, IgG) VH: EVQLLESGGGLVQPGGSLRLSCAASGFTFGSYAMTWVRQAPGKGLEWVSAISYQGGNTFYADSVKGRFTISRDNSKNTLYLQMNSLRAEDTAVYYCARVSPIASGMDYWGQGTLVTVSS VL: EIVLTQSPGTLSLSPGERATLSCRASQSVSSSYLAWYQQKPGQAPRLLIYGASSRATGIPDRFSGSGSGTDFTLTISRLEPEDFAVYYCQHYPYPPSFTFGQGTKVEIK | 0.6 nM | 7.41 min | 0.00156 s⁻¹ | 2.58e+06 M⁻¹ s⁻¹ | 2.53 nM | 1.86 min | 0.00621 s⁻¹ | 2.46e+06 M⁻¹ s⁻¹ |  |  |  |  |  | 
L3.PY/H3.YA (antibody, V domains shown, IgG) VH: EVQLLESGGGLVQPGGSLRLSCAASGFTFGSYAMTWVRQAPGKGLEWVSAISGSGGNTFYADSVKGRFTISRDNSKNTLYLQMNSLRAEDTAVYYCARVSPIYAGMDYWGQGTLVTVSS VL: EIVLTQSPGTLSLSPGERATLSCRASQSVSSSYLAWYQQKPGQAPRLLIYGASSRATGIPDRFSGSGSGTDFTLTISRLEPEDFAVYYCQHYPYPPSFTFGQGTKVEIK | 0.37 nM | 9.82 min | 0.00118 s⁻¹ | 3.15e+06 M⁻¹ s⁻¹ | 1.88 nM | 2.14 min | 0.0054 s⁻¹ | 2.87e+06 M⁻¹ s⁻¹ |  |  |  |  |  | 
L3.PY/H3.AQ (antibody, V domains shown, IgG) VH: EVQLLESGGGLVQPGGSLRLSCAASGFTFGSYAMTWVRQAPGKGLEWVSAISGSGGNTFYADSVKGRFTISRDNSKNTLYLQMNSLRAEDTAVYYCARVSPIAAQMDYWGQGTLVTVSS VL: EIVLTQSPGTLSLSPGERATLSCRASQSVSSSYLAWYQQKPGQAPRLLIYGASSRATGIPDRFSGSGSGTDFTLTISRLEPEDFAVYYCQHYPYPPSFTFGQGTKVEIK | 0.56 nM | 6.69 min | 0.00173 s⁻¹ | 3.08e+06 M⁻¹ s⁻¹ | 1.94 nM | 2.14 min | 0.00539 s⁻¹ | 2.77e+06 M⁻¹ s⁻¹ |  |  |  |  |  | 
L3.PY/H3.AE (antibody, V domains shown, IgG) VH: EVQLLESGGGLVQPGGSLRLSCAASGFTFGSYAMTWVRQAPGKGLEWVSAISGSGGNTFYADSVKGRFTISRDNSKNTLYLQMNSLRAEDTAVYYCARVSPIAAEMDYWGQGTLVTVSS VL: EIVLTQSPGTLSLSPGERATLSCRASQSVSSSYLAWYQQKPGQAPRLLIYGASSRATGIPDRFSGSGSGTDFTLTISRLEPEDFAVYYCQHYPYPPSFTFGQGTKVEIK | 0.42 nM | 8.32 min | 0.00139 s⁻¹ | 3.29e+06 M⁻¹ s⁻¹ | 1.79 nM | 2.29 min | 0.00504 s⁻¹ | 2.82e+06 M⁻¹ s⁻¹ |  |  |  |  |  | 
L3.PY/L1.AH/H2.HA (antibody, V domains shown, IgG) VH: EVQLLESGGGLVQPGGSLRLSCAASGFTFGSYAMTWVRQAPGKGLEWVSAISHAGGNTFYADSVKGRFTISRDNSKNTLYLQMNSLRAEDTAVYYCARVSPIASGMDYWGQGTLVTVSS VL: EIVLTQSPGTLSLSPGERATLSCRASQSVSAHYLAWYQQKPGQAPRLLIYGASSRATGIPDRFSGSGSGTDFTLTISRLEPEDFAVYYCQHYPYPPSFTFGQGTKVEIK | 0.54 nM | 6.37 min | 0.00181 s⁻¹ | 3.33e+06 M⁻¹ s⁻¹ | 1.7 nM | 2.63 min | 0.00439 s⁻¹ | 2.58e+06 M⁻¹ s⁻¹ |  |  |  |  |  | 
COMBO_Rd4_0.6nM_C22 (antibody, V domains shown, IgG; also called COM22) VH: EVQLLESGGGLVQPGGSLRLSCAASGFTFSSYAMNWVRQAPGKGLEWVSAISDSGGSRWYADSVKGRFTISRDNSKNTLYLQMNSLRAEDTAVYYCTRYWPMDIWGQGTLVTVSS VL: EIVLTQSPGTLSLSPGERATLSCRASVRVSSTYLAWYQQKPGQAPRLLMYDASIRATGIPDRFSGSGSGTDFTLTISRLEPEDFAVYYCQQYMKWPLTFGQGTKVEIK |  |  |  |  |  |  |  |  | 0.036 nM | 7.15e-05 s⁻¹ | 1.97e+06 M⁻¹ s⁻¹ | 0.05 nM | 6.66e-05 s⁻¹ | 1.34e+06 M⁻¹ s⁻¹
